The values below come from patent EP4707304A1 (Axcynsis Therapeutics Pte. Ltd., dated 2024).

In experiment [1] the target is T1, VLP-hCLDN6 (human) (UniProt P56747).
T1 sequence: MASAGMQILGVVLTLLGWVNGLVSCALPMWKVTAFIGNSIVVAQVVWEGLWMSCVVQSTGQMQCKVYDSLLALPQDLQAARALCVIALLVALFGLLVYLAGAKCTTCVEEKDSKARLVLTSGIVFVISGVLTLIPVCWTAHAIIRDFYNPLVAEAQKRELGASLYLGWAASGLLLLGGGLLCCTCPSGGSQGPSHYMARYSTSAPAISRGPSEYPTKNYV
The experiment can be described thus: ELISA, coated VLP-hCLDN6, 10 ul antibody sample, HRP-Protein A. A general note: In an ELISA, binding on a coated surface is turned into a signal by an enzyme label.

Experiment [2] concerns the target T1, VLP-hCLDN6 (human). Put plainly: ELISA, coated VLP-hCLDN6, 100 ul antibody sample, HRP-Protein A.
In experiment [3] the target is T1, VLP-hCLDN6 (human). Put plainly: ELISA, coated VLP-hCLDN6, 10 ul antibody sample (second well), HRP-Protein A.
Experiment [4] has as its target T1, VLP-hCLDN6 (human). Put plainly: ELISA, coated VLP-hCLDN6, 100 ul antibody sample (second well), HRP-Protein A.

B1: humanized antibody hAb-6 (antibody, V domains shown)
VH: EVKLVESGGGLVKPGGSLRLSCAASGFTFNSYTMSWVRQAPGKRLEWVVTISSGGGRTYYPDSVKGRFTISRDNAKNTLYLQMSSLRAEDTAVYYCIRGDYRYDGFAYWGQGTLVTVSS
VL: DIQMTQSPSSLSASVGDRVTITCRASENIDSYLAWYQQKPGKSPQLLVYASTLLQDGVPSRFSGSRSGTDFTLTISSLQPEDVATYYCQHYYSIPYTFGSGTKLEIK
B1: the OD450 in the experiment with VLP-hCLDN6 (human) [1] was found to be 0.89; with VLP-hCLDN6 (human) [2] it was 1.55; with VLP-hCLDN6 (human) [3], 1.04; with VLP-hCLDN6 (human) [4], 1.61.

B2: humanized antibody hAb-10 (antibody, V domains shown)
VH: EVKLVESGGGLVKPGGSLRLSCAASGFTFNSYTMSWVRQTPAKRLEWVVTISSGGGRTYYPDSVKGRFTISRDNAKNTLYLQMSSLRAEDTAVYYCIRGDYRYDGFAYWGQGTLVTVSS
VL: DIQMTQSPSSLSASVGDRVTITCRASENIDSYLAWYQQKPGKSPQLLVYASTLLQDGVPSRFSGSRSGTDFTLTISSLQPEDVATYYCQHYYSIPYTFGSGTKLEIK
For B2, the OD450 with VLP-hCLDN6 (human) [1] was found to be 1.18; in the experiment with VLP-hCLDN6 (human) [2], 1.5; in the experiment with VLP-hCLDN6 (human) [3], 1.13; with VLP-hCLDN6 (human) [4], 1.51.

B3: humanized antibody hAb-18 (antibody, V domains shown)
VH: EVKLVESGGGLVQPGGSLRLSCAASGFTFNSYTMSWVRQTPAKRLEWVVTISSGGGRTYYPDSVKGRFTISRDNAKNTLYLQMSSLRAEDTAVYYCIRGDYRYDGFAYWGQGTLVTVSS
VL: DIQMTQSPSSLSASVGDRVTITCRASENIDSYLAWYQQKPGKSPQLLVYASTLLQDGVPSRFSGSRSGTDFTLTISSLQPEDVATYYCQHYYSIPYTFGSGTKLEIK
With B3, the OD450 with VLP-hCLDN6 (human) [1] came to 1.17; in the experiment with VLP-hCLDN6 (human) [2] it was 1.68; with VLP-hCLDN6 (human) [3], 1.13; with VLP-hCLDN6 (human) [4], 1.52.

B4: humanized antibody hAb-20 (antibody, V domains shown)
VH: EVKLVESGGGLVQPGGSLRLSCAASGFTFNSYTMSWVRQTPAKRLEWVVTISSGGGRTYYPDSVKGRFTISRDNAKNTLYLQMSSLRAEDTAVYYCIRGDYRYDGFAYWGQGTLVTVSS
VL: DIQMTQSPSSLSASVGDRVTITCRASENIDSYLAWYQQKPGKSPQLLVYASTLLQDGVPSRFSGSRSGTQFTLTISSLQPEDFATYYCQHYYSIPYTFGSGTKLEIK
With B4, the OD450 came out at 1.38 with VLP-hCLDN6 (human) [1], 1.81 in the experiment with VLP-hCLDN6 (human) [2], 1.41 in the experiment with VLP-hCLDN6 (human) [3] and 1.68 with VLP-hCLDN6 (human) [4].

B5: humanized antibody hAb-15 (antibody, V domains shown)
VH: EVKLVESGGGLVQPGGSLRLSCAASGFTFNSYTMSWVRQAPGKRLEWVVTISSGGGRTYYPDSVKGRFTISRDNAKNTLYLQMSSLRAEDTAVYYCIRGDYRYDGFAYWGQGTLVTVSS
VL: DIQMTQSPSSLSASVGDRVTITCRASENIDSYLAWYQQKPGKSPQLLVYASTLLQDGVPSRFSGSRSGTQFTLTISSLQPEDVARYYCQHYYSIPYTFGSGTKLEIK
With B5, the OD450 stood at 1.39 with VLP-hCLDN6 (human) [1], 1.78 in the experiment with VLP-hCLDN6 (human) [2], 1.47 with VLP-hCLDN6 (human) [3] and 1.8 with VLP-hCLDN6 (human) [4].

B6: humanized antibody hAb-12 (antibody, V domains shown)
VH: EVKLVESGGGLVKPGGSLRLSCAASGFTFNSYTMSWVRQTPAKRLEWVVTISSGGGRTYYPDSVKGRFTISRDNAKNTLYLQMSSLRAEDTAVYYCIRGDYRYDGFAYWGQGTLVTVSS
VL: DIQMTQSPSSLSASVGDRVTITCRASENIDSYLAWYQQKPGKSPQLLVYASTLLQDGVPSRFSGSRSGTQFTLTISSLQPEDFATYYCQHYYSIPYTFGSGTKLEIK
For the molecule B6, the OD450 with VLP-hCLDN6 (human) [1] is 1.36; in the experiment with VLP-hCLDN6 (human) [2], 1.76; with VLP-hCLDN6 (human) [3], 1.4; with VLP-hCLDN6 (human) [4] it was 1.67.

B7: humanized antibody hAb-11 (antibody, V domains shown)
VH: EVKLVESGGGLVKPGGSLRLSCAASGFTFNSYTMSWVRQTPAKRLEWVVTISSGGGRTYYPDSVKGRFTISRDNAKNTLYLQMSSLRAEDTAVYYCIRGDYRYDGFAYWGQGTLVTVSS
VL: DIQMTQSPSSLSASVGDRVTITCRASENIDSYLAWYQQKPGKSPQLLVYASTLLQDGVPSRFSGSRSGTQFTLTISSLQPEDVARYYCQHYYSIPYTFGSGTKLEIK
Turning to B7, the OD450 with VLP-hCLDN6 (human) [1] was determined as 1.41; in the experiment with VLP-hCLDN6 (human) [2] it was 1.81; in the experiment with VLP-hCLDN6 (human) [3], 1.54; with VLP-hCLDN6 (human) [4], 1.8.

B8: humanized antibody hAb-21 (antibody, V domains shown)
VH: EVKLVESGGGLVQPGGSLRLSCAASGFTFNSYTMSWVRQTPAKRLEWVVTISSGGGRTYYPDSVKGRFTISRDNAKNTLYLQMSSLRAEDTAVYYCIRGDYRYDGFAYWGQGTLVTVSS
VL: DIQMTQSPSSLSASVGDRVTITCRASENIDSYLAWYQQKPGKSPQLLVYASTLLVDGVPSRFSGSRSGTQFSLTISSLQPEDVARYYCQHYYSIPYTFGSGTKLEIK
With B8, the OD450 with VLP-hCLDN6 (human) [1] came out at 2.05; with VLP-hCLDN6 (human) [2], 2.23; with VLP-hCLDN6 (human) [3], 1.9; with VLP-hCLDN6 (human) [4], 2.45.

B9: humanized antibody hAb-17 (antibody, V domains shown)
VH: EVKLVESGGGLVQPGGSLRLSCAASGFTFNSYTMSWVRQAPGKRLEWVVTISSGGGRTYYPDSVKGRFTISRDNAKNTLYLQMSSLRAEDTAVYYCIRGDYRYDGFAYWGQGTLVTVSS
VL: DIQMTQSPSSLSASVGDRVTITCRASENIDSYLAWYQQKPGKSPQLLVYASTLLVDGVPSRFSGSRSGTQFSLTISSLQPEDVARYYCQHYYSIPYTFGSGTKLEIK
In the case of B9, the OD450 with VLP-hCLDN6 (human) [1] was determined as 1.6; with VLP-hCLDN6 (human) [2] it was 1.93; in the experiment with VLP-hCLDN6 (human) [3] it was 1.72; with VLP-hCLDN6 (human) [4] it was 1.78.

B10: humanized antibody hAb-7 (antibody, V domains shown)
VH: EVKLVESGGGLVKPGGSLRLSCAASGFTFNSYTMSWVRQAPGKRLEWVVTISSGGGRTYYPDSVKGRFTISRDNAKNTLYLQMSSLRAEDTAVYYCIRGDYRYDGFAYWGQGTLVTVSS
VL: DIQMTQSPSSLSASVGDRVTITCRASENIDSYLAWYQQKPGKSPQLLVYASTLLQDGVPSRFSGSRSGTQFTLTISSLQPEDVARYYCQHYYSIPYTFGSGTKLEIK
Regarding B10, the OD450 amounted to 1.37 with VLP-hCLDN6 (human) [1], 1.73 with VLP-hCLDN6 (human) [2], 1.46 with VLP-hCLDN6 (human) [3] and 1.91 in the experiment with VLP-hCLDN6 (human) [4].

B11: humanized antibody hAb-16 (antibody, V domains shown)
VH: EVKLVESGGGLVQPGGSLRLSCAASGFTFNSYTMSWVRQAPGKRLEWVVTISSGGGRTYYPDSVKGRFTISRDNAKNTLYLQMSSLRAEDTAVYYCIRGDYRYDGFAYWGQGTLVTVSS
VL: DIQMTQSPSSLSASVGDRVTITCRASENIDSYLAWYQQKPGKSPQLLVYASTLLQDGVPSRFSGSRSGTQFTLTISSLQPEDFATYYCQHYYSIPYTFGSGTKLEIK
Regarding B11, the OD450 is 1.26 with VLP-hCLDN6 (human) [1], 1.39 with VLP-hCLDN6 (human) [2], 1.24 with VLP-hCLDN6 (human) [3] and 1.71 with VLP-hCLDN6 (human) [4].

B12: humanized antibody hAb-14 (antibody, V domains shown)
VH: EVKLVESGGGLVQPGGSLRLSCAASGFTFNSYTMSWVRQAPGKRLEWVVTISSGGGRTYYPDSVKGRFTISRDNAKNTLYLQMSSLRAEDTAVYYCIRGDYRYDGFAYWGQGTLVTVSS
VL: DIQMTQSPSSLSASVGDRVTITCRASENIDSYLAWYQQKPGKSPQLLVYASTLLQDGVPSRFSGSRSGTDFTLTISSLQPEDVATYYCQHYYSIPYTFGSGTKLEIK
In the case of B12, the OD450 with VLP-hCLDN6 (human) [1] was 0.22; in the experiment with VLP-hCLDN6 (human) [2] it was 0.97; with VLP-hCLDN6 (human) [3] it was 0.23; in the experiment with VLP-hCLDN6 (human) [4], 0.99.

B13: humanized antibody hAb-8 (antibody, V domains shown)
VH: EVKLVESGGGLVKPGGSLRLSCAASGFTFNSYTMSWVRQAPGKRLEWVVTISSGGGRTYYPDSVKGRFTISRDNAKNTLYLQMSSLRAEDTAVYYCIRGDYRYDGFAYWGQGTLVTVSS
VL: DIQMTQSPSSLSASVGDRVTITCRASENIDSYLAWYQQKPGKSPQLLVYASTLLQDGVPSRFSGSRSGTQFTLTISSLQPEDFATYYCQHYYSIPYTFGSGTKLEIK
For the molecule B13, the OD450 with VLP-hCLDN6 (human) [1] is 1.27; with VLP-hCLDN6 (human) [2] it was 1.84; in the experiment with VLP-hCLDN6 (human) [3], 1.22; in the experiment with VLP-hCLDN6 (human) [4], 1.88.

B14: humanized antibody hAb-19 (antibody, V domains shown)
VH: EVKLVESGGGLVQPGGSLRLSCAASGFTFNSYTMSWVRQTPAKRLEWVVTISSGGGRTYYPDSVKGRFTISRDNAKNTLYLQMSSLRAEDTAVYYCIRGDYRYDGFAYWGQGTLVTVSS
VL: DIQMTQSPSSLSASVGDRVTITCRASENIDSYLAWYQQKPGKSPQLLVYASTLLQDGVPSRFSGSRSGTQFTLTISSLQPEDVARYYCQHYYSIPYTFGSGTKLEIK
In the case of B14, the OD450 in the experiment with VLP-hCLDN6 (human) [1] worked out at 1.62; with VLP-hCLDN6 (human) [2], 1.7; with VLP-hCLDN6 (human) [3], 1.57; with VLP-hCLDN6 (human) [4], 1.79.

B15: humanized antibody hAb-13 (antibody, V domains shown)
VH: EVKLVESGGGLVKPGGSLRLSCAASGFTFNSYTMSWVRQTPAKRLEWVVTISSGGGRTYYPDSVKGRFTISRDNAKNTLYLQMSSLRAEDTAVYYCIRGDYRYDGFAYWGQGTLVTVSS
VL: DIQMTQSPSSLSASVGDRVTITCRASENIDSYLAWYQQKPGKSPQLLVYASTLLVDGVPSRFSGSRSGTQFSLTISSLQPEDVARYYCQHYYSIPYTFGSGTKLEIK
Turning to B15, the OD450 in the experiment with VLP-hCLDN6 (human) [1] came out at 1.68; in the experiment with VLP-hCLDN6 (human) [2], 1.95; in the experiment with VLP-hCLDN6 (human) [3], 1.7; with VLP-hCLDN6 (human) [4] it was 2.26.

B16: humanized antibody hAb-9 (antibody, V domains shown)
VH: EVKLVESGGGLVKPGGSLRLSCAASGFTFNSYTMSWVRQAPGKRLEWVVTISSGGGRTYYPDSVKGRFTISRDNAKNTLYLQMSSLRAEDTAVYYCIRGDYRYDGFAYWGQGTLVTVSS
VL: DIQMTQSPSSLSASVGDRVTITCRASENIDSYLAWYQQKPGKSPQLLVYASTLLVDGVPSRFSGSRSGTQFSLTISSLQPEDVARYYCQHYYSIPYTFGSGTKLEIK
Regarding B16, the OD450 came out at 1.71 with VLP-hCLDN6 (human) [1], 1.84 in the experiment with VLP-hCLDN6 (human) [2], 1.57 with VLP-hCLDN6 (human) [3] and 1.94 with VLP-hCLDN6 (human) [4].
